Test results: US20200347130A1 (JIANGSU HENGRUI MEDICINE, published 2020)

T1: CD96 epitope peptide #14 (211-230) (human)
T1 peptide: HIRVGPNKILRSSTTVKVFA

T2: CD96 epitope peptide #12 (181-200) (human)
T2 peptide: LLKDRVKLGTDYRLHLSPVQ

T3: CD96 epitope peptide #13 (196-215) (human)
T3 peptide: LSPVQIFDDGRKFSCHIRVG

T4: CD96 epitope peptide #6 (92-111) (human)
T4 peptide: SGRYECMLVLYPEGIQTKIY

T5: CD96 epitope peptide #20 (295-314) (human)
T5 peptide: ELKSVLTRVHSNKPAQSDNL

T6: CD96 extracellular region with His tag (CD96-His) (human, UniProt P40200 22-519)
T6 construct: also called CD96-ECD-His; Bio-CD96-His (biotin-labelled form)
T6 sequence: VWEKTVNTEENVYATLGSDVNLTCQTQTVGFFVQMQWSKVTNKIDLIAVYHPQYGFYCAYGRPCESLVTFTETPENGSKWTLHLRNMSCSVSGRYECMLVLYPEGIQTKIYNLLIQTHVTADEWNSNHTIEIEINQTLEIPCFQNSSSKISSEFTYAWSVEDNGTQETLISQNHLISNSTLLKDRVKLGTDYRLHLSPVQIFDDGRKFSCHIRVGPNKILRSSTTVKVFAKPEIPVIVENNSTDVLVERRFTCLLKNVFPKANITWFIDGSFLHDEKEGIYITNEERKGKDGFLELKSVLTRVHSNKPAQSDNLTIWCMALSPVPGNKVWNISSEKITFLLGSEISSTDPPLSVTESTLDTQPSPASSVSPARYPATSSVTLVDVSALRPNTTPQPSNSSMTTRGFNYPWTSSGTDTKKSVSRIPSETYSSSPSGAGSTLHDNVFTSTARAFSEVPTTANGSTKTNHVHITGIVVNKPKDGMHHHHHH

T7: CD96 epitope peptide #1 (17-36) (human)
T7 peptide: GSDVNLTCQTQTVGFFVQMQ

T8: CD96 epitope peptide #17 (250-269) (human)
T8 peptide: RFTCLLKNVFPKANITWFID

T9: CD96 epitope peptide #5 (77-86) (human)
T9 peptide: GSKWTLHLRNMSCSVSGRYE


Experiments:
[1] = molecular target: T1, CD96 epitope peptide #14 (211-230); test: peptide ELISA ('-' indicates no binding, table note)
Description: (§1) The epitopes recognized by anti-CD96 antibody were detected by the assay of binding the antibody to different polypeptide fragments of CD96 protein. The fragments of different polypeptides of the CD96 antigen were coated on the microtiter plate. The signal density after the antibody was added was used to judge the binding activity of the antibody and the polypeptide. The specific experimental method is as follows:
(§2) The polypeptides were diluted to a concentration of 20 μg/ml with PBS buffer (Shanghai Yuanpei Biotechnology Co., Ltd. Cat No. B320), pH 7.4, added to a 96-well microtiter plate (Corning, Cat No. CLS3590-100EA) at a volume of 50 μl/well, and coated at 4° C. overnight. After discarding the liquid, 250 μl/well of 5% skim milk (BD skim milk, Cat No. 232100) blocking solution diluted with PBS was added, and the plate was incubated in an incubator at 37° C. for 3 hours. After blocking, the blocking solution was discarded, and the plate was washed 5 times with PBST buffer (pH 7.4 PBS containing 0.05% tween-20). 50 μl/well of different concentrations of the antibodies to be tested (hybridoma purification antibody or humanized antibody) diluted with sample dilution was added, and the plate was incubated in an incubator at 37° C. for 2 hours. […] After washing the plate 5 times with PBST, 50 μl/well of TMB chromogenic substrate (KPL, Cat No. 52-00-03) was added, the plate was incubated at room temperature for 5-15 min, followed by adding 50 μl/well of 1M H₂SO₄ to stop the reaction. The absorption value was read at 450 nm with a microplate reader (Thermo Scientific MuLtiskan MK3), and the epitopes that CD96 antibody can recognize were analyzed.

[2] = molecular target: T2, CD96 epitope peptide #12 (181-200); test: as above
Description: as §1, §2

[3] = molecular target: T3, CD96 epitope peptide #13 (196-215); test: as above
Description: as §1, §2

[4] = molecular target: T4, CD96 epitope peptide #6 (92-111); test: as above
Description: as §1, §2

[5] = molecular target: T5, CD96 epitope peptide #20 (295-314); test: as above
Description: as §1, §2

[6] = molecular target: T6, CD96 extracellular region with His tag …; test: blocking cell ELISA: antibody premixed with CD96 antigen (0.5 ug/mL), binding to fixed CD155-CHO cells
Description: CD155-CHO cells (constructed by Shanghai Hengrui) were seeded in 96-well culture plates at a density of 9×10⁴/100 μL/well and cultured overnight. After aspirating the supernatant, the plate was washed once with PBS, 100 μl/well of immunostaining fixation solution (Biyuntian, Cat No. P0098) was added and fixed for one hour at room temperature, and the plate was washed three times with PBS. After discarding the liquid, 250 μl/well of 5% skim milk (BD, Cat No. 232100) blocking solution diluted with PBS was added, and the plate was blocked in an incubator at 37° C. for 2.5 hours. After blocking, the blocking solution was discarded, subsequently, the plate was washed 4 times with PBST buffer (pH 7.4 PBS containing 0.05% tween-20). 50 μl/well of antigen-antibody pre-incubation solution (gradient concentrations of the hybridoma antibody to be tested and CD96-Fc at a final concentration of 0.5 μg/mL were premixed at 37° C. for 30 minutes, or gradient concentrations of humanized antibody samples and Bio-CD96-His at a final concentration of 0.5 μg/mL were premixed at 37° C. for 30 minutes) (Biotin-labeled kit, Dongren Chemical, Cat No. LK03) was added, and the plate was incubated in an incubator at 37° C. for 2 hours. After incubation, the reaction solution in the microtiter plate was discarded, the plate was washed 4 times with PBST, and 50 μl/well of HRP-labeled goat anti-human secondary antibody (Jackson Immuno Research, Cat No. 109-035-003) diluted with sample dilution or HRP-labeled streptavidin diluted with sample dilution (Sigma, Cat No. 52438) was added, followed by incubating at 37° C. for 1 hour. After washing the plate 4 times with PBST, 50 μl/well of TMB chromogenic substrate (KPL, Cat No. 52-00-03) was added, the plate was incubated at room temperature for 10-20 minutes, followed by adding 50 μl/well of 1M H₂SO₄ to stop the reaction. The absorption value was read at 450 nm with a NOVOStar microplate reader, and the EC50 value of the effect of CD96 antibody on blocking the binding between the antigens and CD155-CHO cells was calculated (see FIG. 2 and Table 16).

[7] = molecular target: T1, CD96 epitope peptide #14 (211-230); test: peptide ELISA, peptide coated
Description: as §1, §2

[8] = molecular target: T7, CD96 epitope peptide #1 (17-36); test: peptide ELISA, peptide coated
Description: as §1, §2

[9] = molecular target: T8, CD96 epitope peptide #17 (250-269); test: peptide ELISA, peptide coated
Description: as §1, §2

[10] = molecular target: T9, CD96 epitope peptide #5 (77-86 as …); test: peptide ELISA, peptide coated
Description: as §1, §2

Row | Binder | binding result [1] | binding result [2] | binding result [3] | binding result [4] | binding result [5] | IC50 [6] | binding result [7] | binding result [8] | binding result [9] | binding result [10]
1 | ch1720 (antibody, human IgG4 S228P, kappa, V domains shown, also called chimeric antibody corresponding to m1720) VH: EFQLQQSGPELVKPGASVKISCKASAYSLTDYNMNWVKQSNGKSLEWIGVINPSYGISSYNQKFKGKATLTVDQSSSTAYMHLNSLTSEDSAVYYCARQLRLPGYFDVWGTGTTVTVSS VL: DIKMTQSPSSKNASLGERVTITCKASQDINSYLNWFQQKPGKSPKTLIYRASRLVDGVPSRFSGSGSGQDYSLTISSLEYEDMGIYYCLKYDEFPYTFGGGTKLEIKR | no binding | no binding | no binding | no binding | no binding | 149 pM |  |  |  | 
2 | ch1718 (antibody, human IgG4 S228P, kappa, V domains shown, also called chimeric antibody corresponding to m1718) VH: EFQLQQSGPELVKPGASVKISCKASAYSITDYNMNWVKQSNGKSLEWIGVINPSYGITDYNQNFKDKATLTVDQSSSTAYMQLNSLTSEDSAVYYCAIQLRLPGYFDVWGTGTTVIVSS VL: DIKMTQSPSSMYASLGERVTITCKASQDINNYLNWFQQKPGKSPKTLIYRANRLVDGVPSRFSGSGSGQDYSLTISSLEYEDMGIYYCLKYDEFPYTFGGGTKVEIKR |  |  |  |  |  | 96 pM | binds | binds | binds | binds
3 | ch1719 (antibody, human IgG4 S228P, kappa, V domains shown, also called chimeric antibody corresponding to m1719) VH: QVQLKESGPGLVAPSQSLSITCTVSGFSLISYGVSWVRQPPGKGLEWLGVIWGDGNTNYHSVLISRLSIRKDDSKSQVFLKLNSLQTDDTATYYCAKNNYYGSRYGYPMDYWGQGTSVTVSS VL: DIVMTQSHKFMSTSVGDRVSITCKATQDVGTAVAWYQQKPGHSPKLLIYWASTRHTGVPERFTGSGSGTDFTLTIDNVQSEDLADYFCQQYGSSVLTFGAGTKVELRR | no binding | no binding | no binding | no binding | no binding | 137 pM |  |  |  | 
4 | ch1721 (antibody, human IgG4 S228P, kappa, V domains shown, also called chimeric antibody corresponding to m1721) VH: QVQLKESGPGLVAPSQSLSITCTVSGFSLISYGVNWVRQPPGKGLEWLGVIWGDGSTNYHSALISRLSISKDDSKSQVFLNLNSLQTDDTATYYCAKNYFYGSRYGYAMDSWGQGISVTVSS VL: DIQMTQSPASLSAAVGETVTITCRASENIYSSLAWYQQKQGKSPQLLVYNAKTLIETVASRFSGSGSGTQYSLKINSLQPEDFGSFYCQHHYGTPYTFGGGTKLEIKR |  |  |  |  |  | 214 pM | binds | binds | binds | binds
5 | ch1722 (antibody, human IgG4 S228P, kappa, V domains shown, also called chi722; chimeric antibody corresponding to m1722) VH: QVQLQQPGAELVKPGTSVKLSCKASGNTFIDYWMHWVKQRPGQGLEWIGMLHPNSGTTSFNEKFKIKTTLTIDKSSSTAYMQLSSLTSEDSAIYYCASDYSGPFAYWGQGTLVTVSA VL: QIVLTQSPGIMSAFPGEKVTMTCSASSSVNYIHWYQQKSGTSPKRWIFDTSKLASGVPARFSGSGSGTSYSLTISSMEAEDAATYYCQQWRSNPLTFGAGTKLELKR |  |  |  |  |  | 159 pM |  |  |  | 
